Laboratory results: publication PMC4772809, “Network of protein interactions within the Drosophila inner kinetochore” (Open Biology, 2016)

B3: 6xHis::Nnf1a–Mis12 heterodimer (complex, Drosophila melanogaster)
chain 1: MEDSEAAFKRHEGVGPKVKQAYEEAIKQIFADLSCADLQAWDAIYQEHEQSALDTESIVDRTRSLMTKVVLEMNRCFFASNDVPNKLQTLEMLKEHFAAYEGKKWNVNTAAPDKLTRPLRMRFLDFSVEFMEQQLASQAKELEIAMAKSNANRERLQHVHDKRLKLTVQMEQQLSQYEKVKTELIKLGEALNDF
chain 2: MDFNSLAYDQKFFNFTAAQLSAEREHIVQDIIKKGIGQIIDKIKTPATAELLEAEKETVERRFQASASKGLKALRELDSKVFHVPPHVLHPEHMFVENQYTSEEEEQKTARLEELKAKYRENMAMLAHLKIEEEKYAAMEDLIQKEIEMQDRVQRSCSSLNITKLKQFWNQVPLQIKKETD
notes: Nnf1a, as m1; Mis12, as m2; 1 : 1 by SEC-MALS; also called MN dimer; MN; source: E. coli BL21(DE3), co-expressed from Duet vectors; in lysate for Ni-NTA co-purification, then purified (Ni-NTA, SEC); copies: 1 + 1

Columns and labels:
[1] = molecular target: Mis12–Nnf1a–CENP-C^1–94 complex (Drosophila melanogaster) (UniProt Q9VHP9); assay: SEC-MALS; complexes already collected from SEC, stored at 4 °C in SEC buffer and re-loaded; two elution peaks, masses by MALS
[2] = molecular target: B3; assay: SEC-MALS; co-expressed, co-purified complexes on Superdex 200 10/300 at 4 °C, 150 mM NaCl, 10 mM Tris/HCl pH 8.0, in-line MALS and refractometer; details: both partners purified
6xHis::CENP-C^1–94 = molecular target: T1, 6xHis::CENP-C^1–94 (Drosophila melanogaster, UniProt Q9VHP9 1-94); assay: as above; details: both partners purified
T1 construct: also called His-tagged CENP-C 1-94; source: E. coli BL21(DE3)
T1 sequence (looked up): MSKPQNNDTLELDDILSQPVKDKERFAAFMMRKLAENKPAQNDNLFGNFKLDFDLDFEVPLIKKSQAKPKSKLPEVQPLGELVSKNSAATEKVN

6xHis::Nsl1 = molecular target: T2, 6xHis::Nsl1 (Drosophila melanogaster, UniProt Q9VYX4 1-183); assay: as above; details: both partners purified
T2 construct: residues up to 183 are printed; not the NSL-complex protein of the same name; source: E. coli BL21(DE3), co-expressed from Duet vectors (induced overnight); in lysate for Ni-NTA co-purification, then purified (Ni-NTA, SEC)
T2 sequence (looked up): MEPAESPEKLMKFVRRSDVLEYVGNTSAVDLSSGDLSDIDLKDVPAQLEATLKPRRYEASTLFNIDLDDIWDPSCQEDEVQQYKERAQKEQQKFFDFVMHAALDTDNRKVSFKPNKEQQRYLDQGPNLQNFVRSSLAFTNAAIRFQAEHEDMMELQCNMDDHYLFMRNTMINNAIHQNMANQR

[3] = molecular target: the molecule itself; assay: SEC-MALS; complexes already collected from SEC, stored at 4 °C in SEC buffer and re-loaded; two elution peaks, masses by MALS
Nnf1a^122–147 peptide = molecular target: T3, Nnf1a^122–147 peptide (Drosophila melanogaster, N-terminus acetylated; C-terminus amidated); assay: circular dichroism; synthetic peptides alone and in equimolar mixture, 0.1 M PBS pH 7.4, 195–270 nm, room temperature; details: both partners purified
T3 construct: also called Peptide Nnf1; Nnf1a R122-A147; source: synthetic peptide, bought: GenScript
T3 peptide: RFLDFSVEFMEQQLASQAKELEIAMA

6xHis::Nnf1a = molecular target: T4, 6xHis::Nnf1a (Drosophila melanogaster, UniProt Q7JZC9 1-194); assay: SEC-MALS; co-expressed, co-purified complexes on Superdex 200 10/300 at 4 °C, 150 mM NaCl, 10 mM Tris/HCl pH 8.0, in-line MALS and refractometer; details: both partners purified
T4 construct: written 6xHis::Nnf1a; also called polyhistidine (His)-tagged Nnf1a; source: E. coli BL21(DE3), co-expressed from Duet vectors; in lysate for Ni-NTA co-purification, then purified (Ni-NTA, SEC)
T4 sequence (looked up): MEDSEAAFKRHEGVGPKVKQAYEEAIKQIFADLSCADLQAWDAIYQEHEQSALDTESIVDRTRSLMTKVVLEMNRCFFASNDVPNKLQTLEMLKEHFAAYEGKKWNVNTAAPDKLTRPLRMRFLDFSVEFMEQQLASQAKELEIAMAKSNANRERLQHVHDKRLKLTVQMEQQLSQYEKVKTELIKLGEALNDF

Mis12–Nnf1a–CENP-C^1–94 complex (from UniProt Q9VHP9 1-94)
stoichiometry N [1]: 2

B1: CENP-C^1–94 (untagged, recombinant) (domain or fragment, Drosophila melanogaster, UniProt Q9VHP9 1-94, looked up)
chain: MSKPQNNDTLELDDILSQPVKDKERFAAFMMRKLAENKPAQNDNLFGNFKLDFDLDFEVPLIKKSQAKPKSKLPEVQPLGELVSKNSAATEKVN
notes: also called amino-terminal part of CENP-C (residues 1–94); source: E. coli BL21(DE3), co-expressed from Duet vectors; in lysate for Ni-NTA co-purification, then purified (Ni-NTA, SEC)
stoichiometry N [2]: 1

B2: Nnf1a + Mis12 (both untagged) (complex, Drosophila melanogaster)
chain 1: MEDSEAAFKRHEGVGPKVKQAYEEAIKQIFADLSCADLQAWDAIYQEHEQSALDTESIVDRTRSLMTKVVLEMNRCFFASNDVPNKLQTLEMLKEHFAAYEGKKWNVNTAAPDKLTRPLRMRFLDFSVEFMEQQLASQAKELEIAMAKSNANRERLQHVHDKRLKLTVQMEQQLSQYEKVKTELIKLGEALNDF
chain 2: MDFNSLAYDQKFFNFTAAQLSAEREHIVQDIIKKGIGQIIDKIKTPATAELLEAEKETVERRFQASASKGLKALRELDSKVFHVPPHVLHPEHMFVENQYTSEEEEQKTARLEELKAKYRENMAMLAHLKIEEEKYAAMEDLIQKEIEMQDRVQRSCSSLNITKLKQFWNQVPLQIKKETD
notes: Nnf1a, as m6; Mis12, as m2; co-purified through a His tag on the third co-expressed protein; also called Mis12–Nnf1a dimer; MN dimer; source: E. coli BL21(DE3), co-expressed from Duet vectors; in lysate for Ni-NTA co-purification, then purified (Ni-NTA, SEC); copies: 1 + 1
stoichiometry N (6xHis::CENP-C^1–94): 1 | stoichiometry N (6xHis::Nsl1): 1

B3
stoichiometry N [3]: 2

B4: Mis12^101–130 peptide (peptide)
peptide: Ac-TSEEEEQKTARLEELKAKYRENMAMLAHLK-NH2
notes: also called Mis12 peptide; Mis12 T101-K130; source: synthetic peptide, bought: GenScript
binding result (Nnf1a^122–147 peptide): binds

B5: Mis12 (untagged, recombinant) (natural protein, Drosophila melanogaster, UniProt Q9VS01 1-181, looked up)
chain: MDFNSLAYDQKFFNFTAAQLSAEREHIVQDIIKKGIGQIIDKIKTPATAELLEAEKETVERRFQASASKGLKALRELDSKVFHVPPHVLHPEHMFVENQYTSEEEEQKTARLEELKAKYRENMAMLAHLKIEEEKYAAMEDLIQKEIEMQDRVQRSCSSLNITKLKQFWNQVPLQIKKETD
notes: source: E. coli BL21(DE3), co-expressed from Duet vectors; in lysate for Ni-NTA co-purification, then purified (Ni-NTA, SEC)
stoichiometry N (6xHis::Nnf1a): 1
